# ± gives the uncertainty stated by the source.
# Assay: self-splicing fitness, log relative to wild type (ln ratio); higher = more splicing; Tetrahymena group I intron in knt gene, E. coli kanamycin selection, DiMSum; sequences stand for … in CUCUCU…GGAGGGAAAAGUUAUCAGGCAUGCACCUGGUAGCUAGUCUUUAAACCAAUAGAUUGCAUCGGUUUAAAAGGCAAGACCGUCAAAUUGCGGGAAAGGGGUCAACAGCCGUUCAGUACCAAGUCUCAGGGGAAACUUUGAGAUGGCCUUGCAAAGGGUAUGGUAAUAAGCUGACGGACAUGGUCCUAACCACGCAGCCAAGUCCUAAGUCAACAGAUCUUCUGUUGAUAUGGAUGCAGUUCACAGACUAAAUGUCGGUCGGGGAAGAUGUAUUCUUCUCAUAAGAUAUAGUCGGACCUCUCCUUAAUGGGAGCUAGCGGAUGAAGUGAUGCAACACUGGAGCCGCUGGGAACUAAUUUGUAUGCGAAAGUAUAUUGAUUAGUUUUGGAGUACUCGUGGUCG
# Method in brief: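 Six replicate transformations of E. coli BL21(DE3) with a pET-22b(+) library were grown overnight at 37°C or 30°C. The library randomised all eight P1ex-region intron nucleotides, the intron lying in the knt kanamycin-resistance gene, and plates were LB agar with or without 25 μg/mL kanamycin plus 100 μg/mL carbenicillin, 50 μM IPTG and 0.2% rhamnose. Pooled colonies were amplicon-sequenced on an Illumina HiSeq 2500, and fitness is the DiMSum error-weighted combination of wild-type-normalised replicate fold changes, kanamycin versus none.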
Sequence,self-splicing fitness (ln) (30 °C),self-splicing fitness (ln) (37 °C)
GUUUAGCAAUAUUACGCCGU,-2.03 ± 0.13,-0.93 ± 0.14
GCAGAGCAAUAUUACGUCUA,-2.7 ± 0.23,-2.57 ± 0.24
CUCCAGCAAUAUUACGAUCG,-1.49 ± 0.063,-0.922 ± 0.075
AACGAGCAAUAUUACGGUUG,-3.98 ± 0.15,-2.37 ± 0.13
CAUGAGCAAUAUUACGAAAG,-1.36 ± 0.11,-1.18 ± 0.14
UGGAAGCAAUAUUACGCCAU,-3.64 ± 0.28,-2.07 ± 0.36
GGGCAGCAAUAUUACGUGAU,-1.61 ± 0.11,0.0478 ± 0.11
GCAGAGCAAUAUUACGAGCG,-2.33 ± 0.29,-1.41 ± 0.23
UUUCAGCAAUAUUACGGGAG,-0.794 ± 0.07,-0.0774 ± 0.1
GUUUAGCAAUAUUACGUCGA,-1.43 ± 0.28,-0.62 ± 0.28
CGCAAGCAAUAUUACGGCGU,-3.52 ± 0.15,-2.2 ± 0.18
CCAUAGCAAUAUUACGAGUG,-1.44 ± 0.092,-0.172 ± 0.097
GUGCAGCAAUAUUACGAUUC,0.476 ± 0.074,-0.403 ± 0.073
GACCAGCAAUAUUACGAGGG,-3.24 ± 0.2,-2.57 ± 0.21
GCAGAGCAAUAUUACGAUUC,-2.56 ± 0.26,-0.2 ± 0.22
CGACAGCAAUAUUACGCUCC,-1.44 ± 0.12,0.42 ± 0.13
CCUAAGCAAUAUUACGCCUC,-2.59 ± 0.36,
UAAUAGCAAUAUUACGAGUC,-2.97 ± 0.19,-3.77 ± 0.42
AUAGAGCAAUAUUACGGAUG,-1.43 ± 0.12,-2.91 ± 0.31

Sequence,self-splicing fitness (ln) (30 °C),self-splicing fitness (ln) (37 °C)
GAGGAGCAAUAUUACGCGCU,-3.28 ± 0.16,-2.06 ± 0.16
UACUAGCAAUAUUACGCACC,-1.86 ± 0.2,-1.22 ± 0.26
AGAGAGCAAUAUUACGCUCU,-2.47 ± 0.47,
CCCGAGCAAUAUUACGAUGG,-3.39 ± 0.16,-1.28 ± 0.13
CUUGAGCAAUAUUACGUCUC,-3.07 ± 0.24,-2.19 ± 0.27
GGAUAGCAAUAUUACGUGGU,-2.33 ± 0.14,-2.09 ± 0.17
GGGCAGCAAUAUUACGUAAC,-1.94 ± 0.18,-0.668 ± 0.2
GCAUAGCAAUAUUACGCAUG,-3.79 ± 0.23,-2.12 ± 0.19
UCCAAGCAAUAUUACGUAAA,-1.12 ± 0.089,-0.00199 ± 0.11
CUUUAGCAAUAUUACGGACA,-2.76 ± 0.38,-1.44 ± 0.28
CAGCAGCAAUAUUACGUUAG,-1.17 ± 0.063,-0.421 ± 0.078
GGCAAGCAAUAUUACGUUAU,-0.941 ± 0.065,-0.757 ± 0.071
UCCAAGCAAUAUUACGAUUG,-4.13 ± 0.33,-1.78 ± 0.2
CUCUAGCAAUAUUACGGUUG,-1.83 ± 0.12,-0.869 ± 0.14
CCACAGCAAUAUUACGUUUC,-4.16 ± 0.22,-2.44 ± 0.24
UCACAGCAAUAUUACGCUUC,-4.3 ± 0.43,-3.28 ± 0.43
UGCAAGCAAUAUUACGGUUU,-2.53 ± 0.071,-1.28 ± 0.071
CCAGAGCAAUAUUACGCUGC,-2.85 ± 0.27,-1.28 ± 0.25
